The record followed here is article PMC11069190.

Common to all, as to test: EMSA
The target of data set [1] is T1, Rap1 (Saccharomyces cerevisiae) (UniProt P11938).
T1 sequence: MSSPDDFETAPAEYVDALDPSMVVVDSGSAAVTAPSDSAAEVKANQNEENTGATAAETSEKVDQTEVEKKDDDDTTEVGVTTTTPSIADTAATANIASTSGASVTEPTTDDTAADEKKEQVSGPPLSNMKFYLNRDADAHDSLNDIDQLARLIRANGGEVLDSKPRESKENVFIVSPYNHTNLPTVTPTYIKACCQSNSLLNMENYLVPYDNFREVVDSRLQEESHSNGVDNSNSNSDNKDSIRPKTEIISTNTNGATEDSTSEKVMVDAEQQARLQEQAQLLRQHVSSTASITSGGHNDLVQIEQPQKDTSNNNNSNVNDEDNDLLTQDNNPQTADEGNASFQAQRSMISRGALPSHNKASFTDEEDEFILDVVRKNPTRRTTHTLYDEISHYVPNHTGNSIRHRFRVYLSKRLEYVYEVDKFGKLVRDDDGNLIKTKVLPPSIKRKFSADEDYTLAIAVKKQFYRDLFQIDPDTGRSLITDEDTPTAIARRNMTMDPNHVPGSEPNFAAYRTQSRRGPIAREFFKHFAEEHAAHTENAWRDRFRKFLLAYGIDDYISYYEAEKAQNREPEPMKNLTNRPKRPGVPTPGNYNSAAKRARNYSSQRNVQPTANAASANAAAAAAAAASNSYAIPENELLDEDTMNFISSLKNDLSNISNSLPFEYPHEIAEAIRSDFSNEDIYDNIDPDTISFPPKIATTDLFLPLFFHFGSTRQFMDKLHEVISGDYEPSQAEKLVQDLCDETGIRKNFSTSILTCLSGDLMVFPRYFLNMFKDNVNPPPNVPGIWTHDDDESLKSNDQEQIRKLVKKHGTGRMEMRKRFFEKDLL
As to conditions: 10.7 mM HEPES-KOH pH 7.9, 4 mM Tris-Cl, 80.9 mM NaCl, 19.1 mM KCl, 5.4 mM MgCl2, 0.2 mM Mg acetate, 0.05% NP-40, 10% glycerol, 0.2 uM ZnCl2, 0.2 mM EDTA, 0.4 mM.

The target in data set [2] is T2, Reb1 (Saccharomyces cerevisiae) (UniProt P21538).
T2 sequence: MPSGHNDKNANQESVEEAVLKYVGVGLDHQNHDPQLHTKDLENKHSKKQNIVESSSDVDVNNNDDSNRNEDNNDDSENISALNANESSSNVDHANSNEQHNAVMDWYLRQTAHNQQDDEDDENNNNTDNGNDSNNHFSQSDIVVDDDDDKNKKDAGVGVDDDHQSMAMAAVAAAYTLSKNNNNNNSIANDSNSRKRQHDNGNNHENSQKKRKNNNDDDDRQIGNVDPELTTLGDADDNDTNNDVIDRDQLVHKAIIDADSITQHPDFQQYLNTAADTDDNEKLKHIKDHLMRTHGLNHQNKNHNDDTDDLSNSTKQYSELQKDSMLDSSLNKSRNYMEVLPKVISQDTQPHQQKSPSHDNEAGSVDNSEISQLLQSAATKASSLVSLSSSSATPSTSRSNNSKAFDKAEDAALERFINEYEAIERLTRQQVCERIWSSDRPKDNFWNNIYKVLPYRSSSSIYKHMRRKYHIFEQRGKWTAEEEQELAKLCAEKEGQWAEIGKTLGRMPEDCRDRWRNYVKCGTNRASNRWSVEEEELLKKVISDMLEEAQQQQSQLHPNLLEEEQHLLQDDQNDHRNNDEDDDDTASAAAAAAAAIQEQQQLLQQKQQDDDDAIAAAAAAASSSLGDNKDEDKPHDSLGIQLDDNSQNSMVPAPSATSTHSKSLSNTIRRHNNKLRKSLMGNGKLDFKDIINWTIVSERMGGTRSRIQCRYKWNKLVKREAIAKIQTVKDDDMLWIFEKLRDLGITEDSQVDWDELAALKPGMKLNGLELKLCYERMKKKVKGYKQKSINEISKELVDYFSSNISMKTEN
As to conditions: apparent Kd on reconstituted nucleosome; 10.7 mM HEPES-KOH pH 7.9, 4 mM Tris-Cl, 80.9 mM NaCl, 19.1 mM KCl, 5.4 mM MgCl2, 0.2 mM Mg acetate, 0.05% NP-40, 10% glycerol, 0.2 uM ZnCl2, 0.2 mM EDTA, 0.4 mM.

Data set [3] addresses Cbf1 (Saccharomyces cerevisiae) (UniProt P17106). As to conditions: apparent Kd on reconstituted nucleosome; 10.7 mM HEPES-KOH pH 7.9, 4 mM Tris-Cl, 80.9 mM NaCl, 19.1 mM KCl, 5.4 mM MgCl2, 0.2 mM Mg acetate, 0.05% NP-40, 10% glycerol, 0.2 uM ZnCl2, 0.2 mM EDTA, 0.4 mM.
Data set [4] addresses T3, Abf1 (Saccharomyces cerevisiae) (UniProt P14164).
T3 sequence: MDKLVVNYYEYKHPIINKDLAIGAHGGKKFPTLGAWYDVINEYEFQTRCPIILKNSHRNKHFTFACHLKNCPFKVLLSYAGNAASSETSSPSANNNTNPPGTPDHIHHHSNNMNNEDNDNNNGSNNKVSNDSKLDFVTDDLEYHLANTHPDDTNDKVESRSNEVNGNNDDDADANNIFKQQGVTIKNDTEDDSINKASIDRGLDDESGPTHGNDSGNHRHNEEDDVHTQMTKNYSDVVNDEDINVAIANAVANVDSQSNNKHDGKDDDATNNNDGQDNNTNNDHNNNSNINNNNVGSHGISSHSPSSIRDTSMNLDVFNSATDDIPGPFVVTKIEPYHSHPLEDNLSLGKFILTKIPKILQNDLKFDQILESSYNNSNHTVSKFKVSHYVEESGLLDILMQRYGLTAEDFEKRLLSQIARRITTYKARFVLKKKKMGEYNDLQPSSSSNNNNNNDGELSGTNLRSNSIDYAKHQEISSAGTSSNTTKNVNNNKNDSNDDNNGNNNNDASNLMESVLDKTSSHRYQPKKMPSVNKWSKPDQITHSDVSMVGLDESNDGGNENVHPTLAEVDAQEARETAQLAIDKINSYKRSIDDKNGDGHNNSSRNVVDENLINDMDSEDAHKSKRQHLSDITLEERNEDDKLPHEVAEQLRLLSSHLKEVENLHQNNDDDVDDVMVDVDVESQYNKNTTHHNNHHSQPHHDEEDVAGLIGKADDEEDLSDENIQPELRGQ
To be noted: apparent Kd on reconstituted nucleosome; 10.7 mM HEPES-KOH pH 7.9, 4 mM Tris-Cl, 80.9 mM NaCl, 19.1 mM KCl, 5.4 mM MgCl2, 0.2 mM Mg acetate, 0.05% NP-40, 10% glycerol, 0.2 uM ZnCl2, 0.2 mM EDTA, 0.4 mM.

Sequence of UniProt P17106 (P17106 whole entry): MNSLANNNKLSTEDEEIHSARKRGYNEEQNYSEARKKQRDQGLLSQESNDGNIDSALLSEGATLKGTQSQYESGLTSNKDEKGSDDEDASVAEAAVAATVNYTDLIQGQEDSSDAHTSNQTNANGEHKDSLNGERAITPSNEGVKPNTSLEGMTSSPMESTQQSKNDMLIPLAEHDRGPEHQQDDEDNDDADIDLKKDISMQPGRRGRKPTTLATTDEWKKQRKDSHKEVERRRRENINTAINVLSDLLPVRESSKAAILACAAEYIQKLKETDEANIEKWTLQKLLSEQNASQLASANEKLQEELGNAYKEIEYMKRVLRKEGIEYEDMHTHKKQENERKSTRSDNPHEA

In data set [1], “GGTCGCTGTTCAATACATGCACAGGATGTATATATCTGACACGTGCCTGGAGACTAGGGAGTAATCCCCTTGGCGGTTAAAACGCGGGGGACAGCGCGTACGTGCGTTTAAGCGGTGCTAGAGCTGTCTACGACCAATTGAGCGGCCTCGGCACCGGGATTCTCCAGGGCGGCCGCTACACCCATACATTTCCATGGTGATGACCGCGGACCTGCAGGCATGCAAGC (double strand) [20-NC-60Rap1bs nucleosome]” showed a Kd of 0.8 nM.
In the case of “GGTCGCTGTTCAATACATGCACAGGATGTATATATCTGACACGTGCCTGGAGACTAGGGAGTAATCCCCTTGGCGGTTAAAACGCGGGGGACAGCGCGTACGTGCGTTTAAGCGGTGCTAGAGCTGTCTACGACCAATTGAGCGGCCTCGGCACCGGGATTCTCCAGGGCGGCCGCTCGGGTAAAGCATCACCATGGTGATGACCGCGGACCTGCAGGCATGCAAGC (double strand) [20-NC-60Reb1bs nucleosome]”, the Kd in data set [2] was found to be 4.9 nM.
Regarding “GGTCGCTGTTCAATACATGCACAGGATGTATATATCTGACACGTGCCTGGAGACTAGGGAGTAATCCCCTTGGCGGTTAAAACGCGGGGGACAGCGCGTACGTGCGTTTAAGCGGTGCTAGAGCTGTCTACGACCAATTGAGCGGCCTCGGCACCGGGATTCTCCAGGGCGGCCGCTGTCACGTGGGCTAGTAATGGTGATGACCGCGGACCTGCAGGCATGCAAGC (double strand) [20-NC-60Cbf1bs nucleosome]”, the Kd in data set [3] was determined as 7.8 nM.
Take “GGTCGCTGTTCAATACATGCACAGGATGTATATATCTGACACGTGCCTGGAGACTAGGGAGTAATCCCCTTGGCGGTTAAAACGCGGGGGACAGCGCGTACGTGCGTTTAAGCGGTGCTAGAGCTGTCTACGACCAATTGAGCGGCCTCGGCACCGGGATTCTCCAGGGCGGCCGCTTATCGTATTGCATGATATGGTGATGACCGCGGACCTGCAGGCATGCAAGC (double strand) [20-NC-60Abf1bs nucleosome]”: the Kd in data set [4] was found to be 1 nM.
